Measured values reported in the supplement of paper PMC12764529.
± gives the half width of the 95% confidence interval.

Key:
[1] = folding stability dG unfold (combined trypsin and chymotrypsin); higher = more stable
Summary of the method: (§1)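 Unfolding free energy was derived, per protease or combined, against a sequence-predicted unfolded-state K50 and a shared folded-state K50, starting from K50 inferred by Bayesian fitting of sequencing counts. Digestion with trypsin and chymotrypsin was carried out on designed mini-proteins under 80 residues without cysteine in a PA-tagged cDNA display construct. Only designs with AlphaFold2 dimer inter-PAE above 15 were kept.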

[2] = folding stability dG unfold from chymotrypsin proteolysis; higher = more stable
Summary of the method: as §1

[3] = folding stability dG unfold from trypsin proteolysis; higher = more stable
Summary of the method: as §1

Row | Sequence | folding stability dG unfold [1] | folding stability dG unfold [2] | folding stability dG unfold [3]
1 | SAGGSGKVIGFSFEVETPEEAEGLFKENRPDLDVKILEVKPEEGYVRLVAVDPDGKPHVFVVPIVGSAGGSA [r2_201_TrMRF] | 1.11 ± 0.091 kcal/mol | 1.34 ± 0.1 kcal/mol | 0.743 ± 0.055 kcal/mol
2 | SAGGSGMEKYTVTIDLKFYTPETGKTYTKTVTLTTTSIEEAIKAITEKLTPPDMKIEITSITVTPSSAGGSA [r2_320_JUSTAS] | 4.62 ± 0.13 kcal/mol | 4.62 ± 0.11 kcal/mol | 4.34 ± 0.25 kcal/mol
3 | SAGGSGMIPVTVDFPPDVSEEEIKAYVEELEKKGYKVLKVEITTEKDAKGNTLRTVTVVLAPPSLLSAGGSA [r2_442_JUSTAS] | 3.15 ± 0.048 kcal/mol | 3.143 ± 0.02 kcal/mol | 3.14 ± 0.048 kcal/mol
4 | SAGGSGMTVEVSVDPSTGTIRIKIKYGDKEYEVTAPVTRLPDGTYAVELKISAPNGPLLETKEITLPLSAGG [r13_59_JUSTAS] | 2.06 ± 0.087 kcal/mol | 1.76 ± 0.024 kcal/mol | 2.46 ± 0.086 kcal/mol
5 | SAGGSGMVRQEHEYRGPNGWHMRSEMYYSPENGMMNMEMEWVPVIKLPEDDPAKLKKLLAKEGIPISAGGSA [r2_304_TrROS] | 0.803 ± 0.17 kcal/mol | 1.19 ± 0.099 kcal/mol | 0.119 ± 0.16 kcal/mol
6 | SAGGSGPLLERALEEIREALAKAKEGEEVEIEVKVTVTGPDGRTREFTFRIRFVVKDGKIVKVEIESAGGSA [r2_173_TrROS_Hall] | 4.66 ± 0.14 kcal/mol | 4.94 ± 0.085 kcal/mol | 3.74 ± 0.22 kcal/mol
7 | SAGGSGPMTRSITITVTPEIVRDEKGNVTATKYTVTITRSPEVSPEEVEALAAELNAAGIPTTVTPSAGGSA [r2_456_JUSTAS] | 1.5 ± 0.083 kcal/mol | 1.65 ± 0.099 kcal/mol | 1.23 ± 0.026 kcal/mol
8 | SAGGSGRQMVRNIVRHALDQQQQHGKPIDKIYIFGPPNMRKEIKKELEEEGLPPGVKITIVPAEDMQSAGGS [r16_164_TrROS] | 0.326 ± 0.37 kcal/mol | 0.101 ± 0.51 kcal/mol | 0.761 ± 0.13 kcal/mol
9 | SAGGSGSQEVDIDFKFPPNFNMDELAKKIEELPGIDIKPDRYDPENGTYKITINVNDPQAVREIIRSAGGSA [r2_305_TrROS] | -0.483 ± 0.5 kcal/mol | -0.497 ± 0.69 kcal/mol | 0.0473 ± 0.16 kcal/mol
10 | SAGGSGTESKEYPDSKVTVTPVPLPLGDGAPVLRVTTVPKLPNGEPVTTVTLVDPDSDVVVTEETLSAGGSA [r2_484_JUSTAS] | 0.598 ± 0.044 kcal/mol | 0.925 ± 0.012 kcal/mol | -0.0208 ± 0.028 kcal/mol
11 | SAGGSIEEAKKAAEKLAKEIAEKKGWTVKSVEVEKLPDGTVRATITIKYPDGSEETIEVTIPPNTPLSAGGS [r8_175_JUSTAS] | 1.91 ± 0.14 kcal/mol | 0.954 ± 0.039 kcal/mol | 2.63 ± 0.11 kcal/mol
12 | SAGGSIEELAEELARRFAEENGAAEVRVEVEGLPDNTVLVRVYVRGPDGELLGVVDALIPVPEDELSAGGSA [r2_153_TrMRF] | 2.05 ± 0.085 kcal/mol | 2.09 ± 0.062 kcal/mol | 1.94 ± 0.045 kcal/mol
13 | SAGGSIEEVIEELIKSGKPPSKEEIKEAIKKAIEEEVKKKGKKIPKVNIKKITSNPETGKIPIEIIISAGGS [r16_365_JUSTAS] | 0.356 ± 0.17 kcal/mol | 0.784 ± 0.056 kcal/mol | -0.757 ± 0.41 kcal/mol
14 | SAGGSIKIDEIEPDPPGDRVKVKMDIPVPMYDPNGKPKEPMPIKITAEARVDPENGELAINMDIEMSAGGSA [r2_220_TrROS] | 1.67 ± 0.53 kcal/mol | 1.4 ± 0.33 kcal/mol | 2.73 ± 0.41 kcal/mol
15 | SAGGSISVEELKKLPPDSTLTYTEGDKLYEIKVYKNPEGALSIEITEIDPNTGSPVKTEIVNLEELLSAGGS [r16_763_JUSTAS] | 3.21 ± 0.12 kcal/mol | 3.53 ± 0.075 kcal/mol | 1.63 ± 0.13 kcal/mol
16 | SAGGSITVSEDESNLTFTIPVPPTEPLTPEEVRAAAEALLAELGPDIRVLSIERLPDGGYRVEAEVRSAGGS [r8_103_JUSTAS] | 1.87 ± 0.037 kcal/mol | 1.6 ± 0.043 kcal/mol | 2.08 ± 0.033 kcal/mol
17 | SAGGSIVDRIRKILKEYGYTAQVERNGDGITIVVQFNKEQRKKIVSEIQEDFGYPIKIEVMPPGQELSAGGS [r16_514_TrROS] | 2.03 ± 0.11 kcal/mol | 1.94 ± 0.027 kcal/mol | 1.97 ± 0.06 kcal/mol
18 | SAGGSKIIITYDKEKNVITIKVEKNGKLLEITIEVKSKEDLEEALKKAEELAKELEKKGYKVEIIPSAGGSA [r2_118_TrROS_Hall] | 2.15 ± 0.2 kcal/mol | 2.31 ± 0.07 kcal/mol | 1.95 ± 0.12 kcal/mol
